Assay results as given in publication PMC6160764 (Theranostics, 2018).
Blank lines part the entries; values can stand above or below the binder they belong to.

Target: Recombinant human HER3-Fc chimera protein (Homo sapiens, UniProt P21860)
Experiment: BLI

Recombinant human HER3-Fc chimera protein, sequence (P21860 20-643, change not shown): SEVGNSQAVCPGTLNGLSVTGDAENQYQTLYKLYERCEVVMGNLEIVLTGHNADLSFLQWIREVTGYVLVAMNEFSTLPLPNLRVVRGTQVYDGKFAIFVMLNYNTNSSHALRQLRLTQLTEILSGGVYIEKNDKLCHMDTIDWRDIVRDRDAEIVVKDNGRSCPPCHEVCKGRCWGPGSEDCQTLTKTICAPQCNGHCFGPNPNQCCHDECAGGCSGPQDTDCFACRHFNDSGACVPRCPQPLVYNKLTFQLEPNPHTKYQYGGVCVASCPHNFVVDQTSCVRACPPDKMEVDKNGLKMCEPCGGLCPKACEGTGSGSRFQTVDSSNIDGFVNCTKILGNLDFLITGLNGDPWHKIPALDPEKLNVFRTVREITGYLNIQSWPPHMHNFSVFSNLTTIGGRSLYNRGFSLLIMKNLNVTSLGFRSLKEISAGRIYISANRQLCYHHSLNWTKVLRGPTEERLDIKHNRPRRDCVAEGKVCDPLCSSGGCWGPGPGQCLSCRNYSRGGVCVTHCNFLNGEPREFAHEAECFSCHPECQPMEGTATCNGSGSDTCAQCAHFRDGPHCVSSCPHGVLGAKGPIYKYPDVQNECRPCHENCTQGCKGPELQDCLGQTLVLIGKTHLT

Kd: 20 ± 1.4 nM
B1: anti-HER3 scFv (scFv, V domains shown)
VH: not shown
VL: DIQMTQSPSSLSASVGDRVTITCRASQGISNYLAWYQQKPGKAPKLLIYAASSLQSGVPSRFSGSRSGTDFTLTISSLQPEDFATYYCQQYGWLPLTFGQGTKVEIK

Kd: 29 ± 3.7 nM
B2: IRDye800CW-labeled anti-HER3 scFv (scFv, V domains shown)
VH: not shown
VL: B1 VL
